Data reported in patent US20220227827A1 (DINGFU BIOTARGET, published 2022).

B1: reverse-(IL10)2-Fc9-a (Fc fusion)
chain 1: EPKSSDKTHTCPPCPAPELLGGPSVFLFPPKPKDTLMISRTPEVTCVVVDVSHEDPEVKFNWYVDGVEVHNAKTKPREEQYNSTYRVVSVLTVLHQDWLNGKEYKCKVSNKALPAPIEKTISKAKGQPREPQVYTLPPSRDELTKNQVSLSCGVKGFYPSDIAVEWESNGQPENNYKTTPPVLDSDGSFKLASKLTVDKSRWQQGNVFSCSVMHEALHNHYTQKSLSLSPGKGGGGSGGGGSGGGGSSPGQGTQSENSCTHFPGNLPNMLRDLRDAFSRVKTFFQMKDQLDNLLLKESLLEDFKGYLGCQALSEMIQFYLEEVMPQAENQDPDIKAHVNSLGENLKTLRLRLRRCHRFLPCENKSKAVEQVKNAFNKLQEKGIYKAMSEFDIFINYIEAYMTMKIRNGGGGSGGGGSGGGGSSPGQGTQSENSCTHFPGNLPNMLRDLRDAFSRVKTFFQMKDQLDNLLLKESLLEDFKGYLGCQALSEMIQFYLEEVMPQAENQDPDIKAHVNSLGENLKTLRLRLRRCHRFLPCENKSKAVEQVKNAFNKLQEKGIYKAMSEFDIFINYIEAYMTMKIRN
chain 2: DKTHTCPPCPAPELLGGPSVFLFPPKPKDTLMISRTPEVTCVVVDVSHENPEVKFNWYVDGVEVHNAKTKPREEQYNSTYRVVSVLTVLHQDWLNGKEYKCKVSNKALPAPIEKTISKAKGQPREPQVYTLPPSRDELTKNQVSLWCLVKGFYPSDIAVEWESNGQPENNYKTTPPVLDSDGSFFLYSALTVDKSRWQQGNVFSCSVMHEALHNHYTQKSLSLSPGK
notes: purified by protein A only; also called proteinaceous heterodimer of Group C
B2: Human IL10R1 (receptor)
chain: HGTELPSPPSVWFEAEFFHHILHWTPIPNQSESTCYEVALLRYGIESWNSISNCSQTLSYDLTAVTLDLYHSNGYRARVRAVDGSRHSNWTVTNTRFSVDEVTLTVGSVNLEIHNGFILGKIQLPRPKMAPANDTYESIFSHFREYEIAIRKVPGNFTFTHKKVKHENFSLLTSGEVGEFCVQVKPSVASRSNKGMWSKEECISLTRQYFTVTN
notes: Bought recombinant protein coated on the ELISA plate; also called hIL10R1; human IL10R1 proteins

What was measured:
[1] = molecular target: B2; experiment: ELISA, human IL10R1 coated at 5 ug/mL, detection with goat anti-hIgG-HRP
Procedure: Human IL10R1 (R&D, 9100-R1-050) was diluted to 5 μg/mL with coating buffer (50 mM Na₂CO₃, NaHCO₃ pH 9.6), 100 μL/well, overnight at 4° C. After washing, the plates were sealed with 3% BSA-PBS for 1 h at 37° C. The heterodimer proteins of the present disclosure were respectively diluted from 2000 ng/mL and were then diluted 2-fold to a total of 11 concentrations, with the diluent (1% BSA-PBS) as a control, and incubated for 2 h at 37° C. Goat anti-hIgG-HRP (Sigma, A0170) was added and incubated for 1 h at 37° C. The soluble one-component TMB substrate developing solution was added, and the developing was performed in dark at room temperature for 5-10 min. 2N H₂SO₄ 50 μL/well was added to terminate the color development reaction.

[2] = molecular target: Erb-(IL10)2; experiment: ELISA, human IL10R1 coated

EC50 [1] [µg/mL]	binding result [2]	Binder
0.0123		B1
	binds	B2
